Assay results published in patent US20190336582A1 (published 2019).

Target: T1, IL-10 receptor (IL-10R1 and IL-10R2 receptor chains) on mouse cells (mouse, UniProt Q61727 17-575; Q61190 20-349)
T1 sequence (looked up) 1: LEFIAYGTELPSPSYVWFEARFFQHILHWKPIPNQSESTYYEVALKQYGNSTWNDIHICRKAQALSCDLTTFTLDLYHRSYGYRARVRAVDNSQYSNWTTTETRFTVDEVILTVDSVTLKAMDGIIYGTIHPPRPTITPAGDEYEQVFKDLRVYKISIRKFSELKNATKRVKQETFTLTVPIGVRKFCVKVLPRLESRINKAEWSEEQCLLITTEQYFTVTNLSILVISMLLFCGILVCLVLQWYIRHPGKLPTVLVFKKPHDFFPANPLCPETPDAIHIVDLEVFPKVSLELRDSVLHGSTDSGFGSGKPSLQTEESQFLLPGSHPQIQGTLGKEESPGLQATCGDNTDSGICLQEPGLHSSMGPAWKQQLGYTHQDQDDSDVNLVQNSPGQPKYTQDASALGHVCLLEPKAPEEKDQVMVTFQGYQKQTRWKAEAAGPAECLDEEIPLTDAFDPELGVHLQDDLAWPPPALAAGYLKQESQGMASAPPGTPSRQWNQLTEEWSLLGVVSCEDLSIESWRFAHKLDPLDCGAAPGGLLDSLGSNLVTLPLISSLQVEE
T1 sequence (looked up) 2: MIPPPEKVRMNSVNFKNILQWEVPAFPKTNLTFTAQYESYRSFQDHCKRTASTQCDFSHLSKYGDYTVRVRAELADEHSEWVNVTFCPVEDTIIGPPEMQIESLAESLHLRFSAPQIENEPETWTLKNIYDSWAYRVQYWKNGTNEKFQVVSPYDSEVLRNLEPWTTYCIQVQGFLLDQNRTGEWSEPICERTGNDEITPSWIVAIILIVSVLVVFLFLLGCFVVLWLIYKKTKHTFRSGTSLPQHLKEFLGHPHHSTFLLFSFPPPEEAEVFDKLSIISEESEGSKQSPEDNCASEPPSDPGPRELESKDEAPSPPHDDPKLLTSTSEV
Assay: cell-based or functional assay

EC50, proliferation of mouse mast cell line MC/9: 5 pM
IC50, inhibition of TNFα production in LPS-stimulated C57BL/6 mouse PBMCs (PBMC + LPS): 0.45 pM
B1: Human wild-type IL-10 (wtIL-10) (ligand)
chain: SPGQGTQSENSCTHFPGNLPNMLRDLRDAFSRVKTFFQMKDQLDNLLLKESLLEDFKGYLGCQALSEMIQFYLEEVMPQAENQDPDIKAHVNSLGENLKTLRLRLRRCHRFLPCENKSKAVEQVKNAFNKLQEKGIYKAMSEFDIFINYIEAYMTMKIRN
